Among the data in the supplement of paper PMC12042874 are amyloid nucleation score values, retold here.

± gives the uncertainty stated by the source.

A short description of the data set: amyloid nucleation score (Sup35N fusion, yeast selection) (log enrichment); library NNK2; higher = more nucleation; inactive = no reads after selection. Summed up: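 Peptides of 20 random codons, each fused to Sup35N, were expressed in psi-negative yeast. Cells were induced with 100 μM copper sulfate for 24 hours and grown 7 days at 30°C on medium lacking adenine and uracil, and plasmid inserts before and after selection were Illumina-sequenced. Nucleation scores are DiMSum log enrichments of output over input reads, centred on the mode score of non-aggregating sequences, and sequences under 100 input reads were excluded.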
For HLVIGFHYSCHGFFLRSFGH, the amyloid nucleation score entry is “inactive”.
With HLVMCMARVGTTVNLMSHQT, the amyloid nucleation score was found to be 6.304 ± 0.057.
Under HMCHTVLHVSAGY stands 0.246 ± 0.8.
Under HMDHARLEVLTVILLGVWGF stands 5.11 ± 0.089.
HMLAPCFNM returned an amyloid nucleation score of -1.58 ± 0.78.
Under HMMHSWAFL stands 3.81 ± 0.047; under HNLFNHIADNQGRGIEEKLT, -0.003 ± 1.1.
As for HNNFIFYFLLNLMICVHYGQ, the figure is 6.066 ± 0.036; as for HNNGRSFYEKAMVDLGGAWL, 0.263 ± 0.64.
On to HNRISQRRLRLGLRGHWSRK, for which the amyloid nucleation score was 0.691 ± 0.53.
Under HNSLMRMVWLNKHPK stands -0.095 ± 0.8.
As to HNSMSWFR, the amyloid nucleation score turned out to be 4.45 ± 0.058.
HNTAMGLELVPQKKNGVK showed an amyloid nucleation score of -0.06 ± 1.
With HQMQACLVLG, the amyloid nucleation score is 5.736 ± 0.053.
Under HQMRFPGSPMATVGSLRTCR stands -0.528 ± 0.42; under HREKAGSPSCREI, -0.347 ± 1; under HRRVCLDAYTFTFLNMVLAW, -0.187 ± 0.65.
Under HRSYCGFICASVLSAGPVHR stands -0.31 ± 1.1; under HRTLMIVKLCKRSGPFIL, -1.22 ± 0.42.
HRYISNISKYESKNWRVPVG: the amyloid nucleation score entry was “inactive”.
Under HSKTYLKGRLCNSLVWSYES stands 0.712 ± 0.47.
As for HSLFSIAWFVAQYMNFGPDN, the figure is 3.1 ± 0.18.
HSLLLRWNGYSM: the amyloid nucleation score turned out to be 4.92 ± 0.1.
As for HSLSFLMNSFMRYRSCLVVA, the figure is -0.119 ± 0.26; as for HSLVCDN, -0.122 ± 0.39; as for HSNALCLRFVLLPLSGIDIM, -0.295 ± 0.54.
As for HSSIIKSVAWAFNYDA, the figure is 0.159 ± 0.42; as for HSSLFSYREQLYTSFCNIGM, 4.99 ± 0.067.
Under HSWAKMFMMLWGTMSRWDRA stands -0.205 ± 0.62; under HTDCYLWLKLYSTLGILFVF, “inactive”.
Take HTDLTSKFFYLNWCGLSLLR: the amyloid nucleation score was 3.39 ± 0.072.
Under HTKMTIWNVVQC stands -0.517 ± 0.63.
Take HTTDEISAS: the amyloid nucleation score amounted to 1.09 ± 0.36.
HVFLINLGLNCGQRYRYRSL showed an amyloid nucleation score of 6.044 ± 0.047.
Consider HVKRD, for which the amyloid nucleation score is 3.23 ± 0.16.
The substance HVKTTYQLAFSNEQIM registered an amyloid nucleation score of -0.673 ± 0.48.
As for HVSKAVNLG, the figure is 0.52 ± 0.56; as for HVVVDCISNCEFTCMWCSAY, 5.57 ± 0.06; as for HVWLDLTYGNILQNRNCLTW, -0.335 ± 0.25.
Under HWFNSTRK stands 0.187 ± 0.36; under HWLNLCP, -0.512 ± 0.48.
HWNMLSIENLAHVEIIRLGS returned an amyloid nucleation score of 7.085 ± 0.043.
Under HWTYTFRLNSSSSIYQNCSD stands -0.71 ± 1.
HWYTAMVYIFKRQD came in with an amyloid nucleation score of 0.974 ± 0.091.
As for HYAANVVRISYCGGHSRANF, the figure is 5.1 ± 0.077; as for HYRDPFVKRLMKPVGRPATL, 0.192 ± 0.55.
For HYVERWDDAHVFYGWKSDAV, the amyloid nucleation score result is “inactive”.
As for HYVPDPDITL, the figure is -0.504 ± 0.32; as for HYYIHSFNMYPVGSRLVPYE, -0.065 ± 0.42.
Under IAAYLLNSQYDSCNVDEKRH stands -0.448 ± 0.39; under IAFGAGCLMWSR, 8.335 ± 0.063; under IAFRTSLYRD, -1.39 ± 0.48.
IALKFFH showed an amyloid nucleation score of 0.882 ± 0.3.
Under IASTVDFKSLIISGDPSRQF stands -0.235 ± 0.46.
IAVATSGP had an amyloid nucleation score of 0.84 ± 0.46.
As for IAVRDALVSVQLLPPENVGV, the figure is 1.13 ± 0.15.
As for IAVRMALGLENNKFFLIVHK, the figure is -1.44 ± 0.55; as for IAYATPPSHGAC, 1.32 ± 0.15.
As for IAYNMRNGH, the figure is 0.949 ± 0.74; as for ICCTSSANNSTPPQSCWTPK, 5.84 ± 0.076; as for ICDDNVAVEWLRLTVCTFRL, 0.396 ± 0.28.
Substance ICFWMACKIECCQQRTNFVS yielded an amyloid nucleation score of -0.139 ± 0.26.
Under ICISWPINLCMV stands 2.6 ± 0.22; under ICQCGYFWF, 2.8 ± 0.15; under ICSPVQSAPSRAEKND, -0.297 ± 0.45.
As for ICSTVSVIKT, the figure is -0.249 ± 0.64.
ICYFLKGAFRR returned an amyloid nucleation score of -0.493 ± 0.78.
As for ICYILILYTELVRSSLPFLG, the amyloid nucleation score result is “inactive”.
Regarding IDCSFSFFVSPFRHPHSQED, the amyloid nucleation score is 4.87 ± 0.092.
The substance IDHNTSRC gave an amyloid nucleation score of 0.023 ± 0.76.
IDKICFKTDLIVFCRGLNPC yielded an amyloid nucleation score of 1.9 ± 0.19.
Under IDKSG stands 2.44 ± 0.14.
For the substance IDLSLNLGVRGVRQDETLFA, the amyloid nucleation score result was “inactive”.
Under IDPADVGILSCCFLNDSKHE stands 0.467 ± 0.46; under IDQLLGLDRSCCVNL, 0.387 ± 0.8; under IDSFDPGFRRHLDRSWIRRH, 0.105 ± 1.1.
The substance IDVLTQLNSFRMNFYVSANI yielded an amyloid nucleation score of -0.868 ± 1.1.
As for IDWIGPIYMHIAVMMVTVFQ, the figure is 4.924 ± 0.033; as for IDYVFAAGDKWWVSVLL, -0.412 ± 1.1.
For IEGYYGASRVRGMSMGLLWV, the amyloid nucleation score is -0.17 ± 0.79.
Under IEKSMLVVLGINVRVSMGVG stands 0.175 ± 0.24; under IFANVFANWHVGYLFTGSYY, 4.02 ± 0.081; under IFASSYVLSHYILGGHRSRK, 2.7 ± 0.1.
As for IFEHS, the figure is 0.346 ± 0.61; as for IFFFWVLMRYW, -0.689 ± 0.55.
IFFLPVTCTWGTQWRL displayed an amyloid nucleation score of 1.56 ± 0.15.
IFGSLLNMIYMV returned an amyloid nucleation score of 2.5 ± 0.21.
Under IFHCGLLRALRFSSHLYWVG stands 0.505 ± 0.51.
The substance IFHPSLTSRIPINTRHKVT gave an amyloid nucleation score of 4.4 ± 0.065.
As for IFIMQTHFTGRVCPSSVKLP, the figure is 4.99 ± 0.066; as for IFNKYLVIFSIFI, 6.747 ± 0.037; as for IFNVHMVRF, 9.317 ± 0.052.
As for IFNVSLGYLTLIMVHYEFLH, the amyloid nucleation score is 5.733 ± 0.042.
Under IFNVSMSIVRSLVITCMWGL stands 5.321 ± 0.043.
Under IFPFLDFRRFFLVYHVGPIS stands 2.4 ± 0.24; under IFRISPSLGKRYGVRPERSW, 1.32 ± 0.38; under IFRSMFILTYPGSRYNDEYL, 4.13 ± 0.061.
In turn, IFRTFFIYKEFCGFLWCVGG yielded an amyloid nucleation score of 1.02 ± 0.32.
Under IFTYCVWSFSWFW stands 7.302 ± 0.053; under IFVLVS, 0.131 ± 0.38; under IFWYRCNINSGCEQVVYWGN, 5.311 ± 0.033.
Under IGCFTLR stands 1.58 ± 0.088; under IGFDFRTA, 0.418 ± 0.62; under IGISWLATWPIEFTRLSRMV, 1.53 ± 0.52.
Under IGKSEYVEFRLTSSP stands 0.354 ± 0.53; under IGLDRWLMSLRRYAMHK, -0.089 ± 0.18; under IGNAMHSLHSIHVRCRHSLE, 0.713 ± 0.74.
For IGRCDELGRCRTRARACSGL, the amyloid nucleation score came to 7.78 ± 0.084.
Under IGRSMGRTFWR stands 1.5 ± 0.18.
Consider IGSRS, for which the amyloid nucleation score was -1.25 ± 0.48.
As for IGYVEAWWVFLVGSDAVRAP, the figure is -0.018 ± 1.1; as for IHICKQTCG, 0.812 ± 0.3.
Substance IHLHYNVDNCTFELLK showed an amyloid nucleation score of -0.499 ± 0.26.
With IHLLPLPYEVPSLLCTSRGP, the amyloid nucleation score worked out at 0.258 ± 0.4.
With IHNDCKLPMFVIMFS, the amyloid nucleation score was determined as 6 ± 0.082.
Under IHSEFHKSY stands “inactive”.
In turn, IIGASCTNNSRMVLVWATVF had an amyloid nucleation score of -0.76 ± 1.
With IIHYAFSRNWSP, the amyloid nucleation score is 1.54 ± 0.31.
IIKANVSVRYVFDKFHKMVH returned an amyloid nucleation score of 2.83 ± 0.094.
In turn, IIKLPWFWDAFKAARQ registered an amyloid nucleation score of -0.069 ± 0.3.
The substance IINSDLMCLVNLFVNDSMRG came in with an amyloid nucleation score of 8.093 ± 0.059.
Regarding IIRDPTACTFLVCVSYME, the amyloid nucleation score worked out at 6.27 ± 0.059.
Regarding IIWPPMSWELISLNCQCVRK, the amyloid nucleation score was -0.413 ± 0.63.
The substance IIWYTTFVDLLTIIDDGRLW had an amyloid nucleation score of 0.499 ± 0.49.
Substance IIYYIMVTFWYSVYQPFRSF returned an amyloid nucleation score of -0.081 ± 0.79.
For IKATCAGSNIFDNLALKDAS, the amyloid nucleation score entry was “inactive”.
As for IKCFAMGETFLAKVVHCTCW, the figure is 4.04 ± 0.065; as for IKSSAFGAGVQLAAQRSVIT, -0.432 ± 0.29.
Under IKTRKHSGIMAC stands 0.552 ± 0.32.
Substance ILAQNCSFYLGVTLRIARRH registered an amyloid nucleation score of 1.21 ± 0.43.
The substance ILGHLYLKIKKLSFVM yielded an amyloid nucleation score of -0.658 ± 1.
In the case of ILGISCVFY, the amyloid nucleation score amounted to 7.227 ± 0.072.
In turn, ILGLFSFPKMPMVDYNIWMR registered an amyloid nucleation score of -0.137 ± 1.1.
Under ILGLPSINSSISLHKTITDP stands 2.86 ± 0.056.
Under ILIMRKENGCLRELCFFCRA stands “inactive”; under ILIWVVNLYAYVNYFM, 3.1 ± 0.062; under ILKPDMWFKGARCDTNQLNC, -0.62 ± 0.39.
ILKPYCVCDLSNKLE yielded an amyloid nucleation score of 0.199 ± 0.4.
As for ILLGYIISR, the figure is -0.636 ± 0.79; as for ILLRWNSTSTEVHHVGPTWV, 0.872 ± 0.42; as for ILNLLLVCLRIFDGLYLTRY, -1.06 ± 1.1.
